What was measured:
[1] = biological target: GST-fused PPC12 (PPC1 and PPC2 domains) of metalloprotease E495 (Pseudoalteromonas sp. SM495); test: pull-down; GST-fused PPC domain (or mutant) attached to glutathione-agarose resin; 0.1 mg/ml CPC or casein added, 4°C, 12 h with shaking; substrate remaining in the supernatant analysed by 12.5% SDS-PAGE and ImageJ
[2] = biological target: GST-fused PPC1 domain of metalloprotease E495 (Pseudoalteromonas sp. SM495); test: as above
[3] = biological target: GST-fused PPC2 domain of metalloprotease E495 (Pseudoalteromonas sp. SM495); test: as above
[4] = biological target: alpha casein
[5] = biological target: C-phycocyanin (Synechocystis sp. strain PCC6803) (UniProt Q54715); test: SPR; BIACORE 3000, 25°C; CPC amine-coupled on a CM5 chip; PPC domains 0.25-8 µM at 30 µl/min; regeneration with 20 mM NaOH; global fits, BIAevaluation 4.1
Chain of C-phycocyanin (Synechocystis sp. strain PCC6803) (Q54715 whole entry, chain 1 of 2, other chains not shown, the tested form may be a part): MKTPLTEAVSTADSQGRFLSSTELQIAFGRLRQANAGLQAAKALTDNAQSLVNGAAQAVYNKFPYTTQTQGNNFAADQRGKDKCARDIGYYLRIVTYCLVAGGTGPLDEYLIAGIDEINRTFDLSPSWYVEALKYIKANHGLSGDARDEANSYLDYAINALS

percent bound [1] [%] | percent bound [2] [%] | percent bound [3] [%] | K m of α-casein hydrolysis at 50°C (non-linear fit, Michaelis-Menten) [4] [µM] | Kd [5] [nM] | koff [5] [s⁻¹] | kon [5] [M⁻¹ s⁻¹] | Substance
30 | 30 | 30 | – | – | – | – | C-phycocyanin (from UniProt Q54715 1-162; Q54714 1-172) (complex)
– | – | – | 67 | – | – | – | E495-M (mature form of metalloprotease E495 containing only the catalytic domain) (enzyme)
– | – | – | 18 | – | – | – | E495-M-C1 (mature form of metalloprotease E495 containing the catalytic domain and the PPC1 domain) (enzyme)
– | – | – | – | 770 | 0.0158 | 20400 | GST-fused PPC1 domain of metalloprotease E495 (domain or fragment)
– | – | – | – | 2470 | 0.0162 | 6560 | GST-fused PPC2 domain of metalloprotease E495 (domain or fragment)
30 | 30 | 30 | – | – | – | – | alpha casein (natural protein)

From article PMC3327674, “Structural and Functional Characterization of Mature Forms of Metalloprotease E495 from Arctic Sea-Ice Bacterium Pseudoalteromonas sp. SM495” (PLoS ONE, 2012)
